Results as given in article PMC3947954.

What was measured:
[1] = molecular target: HIP14-GFP (Huntingtin Interacting Protein 14, GFP tagged) (human (from the printed RefSeq entries)) (UniProt Q8IUH5); assay: co-IP; COS-7 cells transiently co-transfected, harvested after 24 h; lysed in 1% SDS TEEN, diluted in four volumes 1% TritonX-100 TEEN; GFP immunoprecipitated overnight (goat anti-GFP, Dynabeads Protein G); blots probed for HTT and GFP; HTT band as percent of the GFP band, normalized to 15Q HTT 1–548
Chain of UniProt Q8IUH5 (Q8IUH5 whole entry): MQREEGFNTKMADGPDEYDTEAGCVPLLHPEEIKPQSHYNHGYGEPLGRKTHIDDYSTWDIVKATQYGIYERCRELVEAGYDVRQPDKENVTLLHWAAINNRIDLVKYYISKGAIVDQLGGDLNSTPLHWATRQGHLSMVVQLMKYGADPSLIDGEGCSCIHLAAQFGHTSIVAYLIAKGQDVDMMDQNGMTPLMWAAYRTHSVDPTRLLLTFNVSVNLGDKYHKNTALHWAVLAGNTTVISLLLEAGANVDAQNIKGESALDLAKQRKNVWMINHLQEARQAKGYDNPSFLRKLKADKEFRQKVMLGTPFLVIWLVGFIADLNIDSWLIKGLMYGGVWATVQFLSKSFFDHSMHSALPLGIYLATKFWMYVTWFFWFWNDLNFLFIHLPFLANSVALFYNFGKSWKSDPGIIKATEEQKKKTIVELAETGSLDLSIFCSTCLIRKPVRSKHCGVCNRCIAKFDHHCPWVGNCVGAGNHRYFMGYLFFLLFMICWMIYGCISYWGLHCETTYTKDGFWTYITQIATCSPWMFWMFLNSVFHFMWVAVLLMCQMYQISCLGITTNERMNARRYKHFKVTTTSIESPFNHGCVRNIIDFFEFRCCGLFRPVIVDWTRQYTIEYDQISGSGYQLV

[2] = molecular target: HIP14L-GFP (Huntingtin Interacting Protein 14-like, GFP tagged) (human (from the printed RefSeq entries)) (UniProt Q8IUH4); assay: as above
Chain of UniProt Q8IUH4 (Q8IUH4 whole entry): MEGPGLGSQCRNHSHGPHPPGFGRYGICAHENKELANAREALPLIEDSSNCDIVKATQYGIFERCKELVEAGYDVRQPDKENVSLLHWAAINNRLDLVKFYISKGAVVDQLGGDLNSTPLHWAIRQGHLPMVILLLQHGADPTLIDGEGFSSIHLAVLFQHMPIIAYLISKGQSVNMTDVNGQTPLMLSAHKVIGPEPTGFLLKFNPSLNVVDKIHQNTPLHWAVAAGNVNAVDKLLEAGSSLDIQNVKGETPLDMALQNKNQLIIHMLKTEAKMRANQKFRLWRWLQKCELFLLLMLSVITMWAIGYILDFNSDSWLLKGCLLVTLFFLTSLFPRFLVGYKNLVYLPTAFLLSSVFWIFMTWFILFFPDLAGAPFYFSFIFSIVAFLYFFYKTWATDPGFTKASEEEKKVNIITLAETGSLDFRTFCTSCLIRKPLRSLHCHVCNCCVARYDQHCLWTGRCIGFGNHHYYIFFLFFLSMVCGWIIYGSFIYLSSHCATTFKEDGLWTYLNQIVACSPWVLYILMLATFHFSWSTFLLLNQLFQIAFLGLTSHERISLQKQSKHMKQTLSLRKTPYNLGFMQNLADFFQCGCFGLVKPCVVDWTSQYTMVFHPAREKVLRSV

With 128Q HTT 1–548 (domain or fragment) the percent less co-immunoprecipitated than 15Q HTT 1–548 [1] was 57% and the percent decrease of interaction against 15Q HTT 1–548 [2] was 54%.
